In a protein production outcome set (Wang et al. 2014):
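Note: failed if final PepcDB status was selected cloned or expressed and not failed if soluble or beyond.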

Experiment: label from the status in PepcDB records
For “MNTYKKIFYFSTILFFYSGFSYAQNINLLLRKGNTCYRKGQYKNAAPYYDQVLKTDPENIQALYKSGVCNLFRYSKEQALINFEKVLQKDSSYDKYLYYWLGRANQLNFNFDQADFFYTAFQQKTSKNKIQYKEADRYKYQLKCARNFVANPANYKIQNLGAAVNSSFSDHSPVVSYTDTLLFFTSRRVTNTEAKEEHDGEPFEDIFYSYRNSTGEWSKPELFHLNTSGHDATIQLFDNDTKIFIYSYLHDGDILLAHKNAGTWSTPVPVKEINSADFESDAFMTADGKTLYYATNHFKKNGDLDICFITKKDDNTWSKPQTLSSLINTDEDEDAPYISADGKTMYFSSRGHTSMGGYDIFKSELDSVTGQWQKPVNLGYPVNTPDEDLYFCLSAKTKRAFMSSYRTGGFGEKDIYEIIPVKNIQLLGSVMKGDTSTPFPNVTMQYIPMAGAMKGAQKTQVNTLADGTYTTELLSDNAYLVYISQGKDTLLKDTLVLPLNEFDHYVYKQLYILNIHDTAAVKDSVIHKVTDTIKTIAAAEIAKTVYFESNRADLNAEAKTELNQLGIYLDTHKEANVYISGHADALGSAAINNALSQKRAQAAAVYLKAKGISAARIKVESFGSEKPVETNATVEGRAKNRRVQIVVK”, the protein production was “failed”.
For “MNVIRLKEDKFREALRLSEYAFQYKVDEDRLQQQITKMKESHEVYGIMEGENLAAKLHLIPFHIYIGKEKFKMGGVAGVATYPEYRRSGYVKELLQHSLQTMKKDGYTVSMLHPFAVSFYRKYGWELCANLLVCHMTKSDLVMKKQVNGTVKRFNKESHPEEVEKLYETFAELFSGMLVRNEKWWLQAVYDDLTLAIYYDENQTAAGYMLYKIENYKMTVEEFVPLHNEARNGLWNFICQHDSMIKDLEMTVSENEPLLYTLQEPRVKTEIKPYFMGRIVDVEQFLKQYELNWNNVQQEVILHITDSFAQWNNITVRIANHEITIIEEPIDKGIKLDINALSTILFGYRRPLELNELELISGSEEEIRAFESVVPVRKPFIYDFF”, the protein production was “not failed”.
In the case of “MNVLLGSVVIFATFVTLCNASCYFIPNEGVPGDSTRKCMDLKGNKHPINSEWQTDNCETCTCYETEISCCTLVSTPVGYDKDNCQRIFKKEDCKYIVVEKKDPKKTCSVSEWII”, the protein production is reported as “not failed”.
With “MNVNKPTTEKKLIDLNNDIIHNFDVSIVMSFYKRYTEFRKVLPHNAPYLQRNGIEVIIVLDDPDEKSELLMLLQNYPFINWKLIINERKHAPRNHASVLNVGLKHATKKYILQIDPEVEFLTDIIWQMRDAIEKYPMHYILAMMAYVPYEQELTENNIKELDFIPWGNLMVERNHLYKLHGYDETFITWGGEDNNMRARLDMSGIKKFILPEAKTIHREKNYDPNERSKRINKHSISDWRKMNYPSEAIANKDIWGSEFNKVIYDWQDNQYAKDLCYTYLQQFIGFEIRHPAAFRKRHKKIVLCQAYNEEKLIEGFLTNMANYFDGIILLDDESTDRTWDLAIHDKIILKVKKKRSGFNDLENRNILLDLSAFFQSEWFCFMDIDERFDERFTNFSEFENNKEIHVVSFRGVYLWNDEQSYKGDIPNSNKGILTVYRMFRPIGHTHINTHKKLHFIATPYFTNTWQSNILFKDYGSMKENDRIRKYERYIQEDQQKDMSSGYDYLLNSENLYQLDKIEEYLEHHHHHH” the protein production was “failed”.
For “MNVSTAELLSWVVKSSYLVAATLFLLGLQRMASPLSARSGIRWAGLGMLIATVATFFLPELHNVPLILAALAIGTGVAWWSAKKVAITDMPQMVALYNGMGGGSAAAIGAVELLRFSFFANRDTAHWSAQAVAELAARQPDTAMVVLAVIGSAIGAVSLSGSIIAWAKLDGRLDRRMTFPGQQAFNLAVAVAVLALAIWAAGSLQPLAIIAFFVVALALGVLMTLPIGGADMPVVISLYNAFTGLAVAFEGYVLGNEALIIAGMMVGAAGILLTRLMAKAMNRPISGVLFSNFGGGGQAQEISGVQKPIEAGDVAAMMAFAERVVIVPGYGMAVAQAQHKIWELAQRLMARGVKVKFAIHPVAGRMPGHMNVLLAEAGVPYDLIADMDDINPEFASTDVSLVIGANDVVNPVAKTDSASPIYGMPILDVVNSRNTVVIKRGKGTGFAGIENALFYADNTRMLYGDGAEAAGALVSELKALDGSGH”, the protein production was “failed”.
For “MNVTGKLRGLISFSTVLPLKSEASIEDIASLTLHWPLVGALIGVAVGSAGVAASLVFPGAVVACVAYGFAIWFTGFHHLDGLIDMGDALMSHGSFERKIEIMRDPRIGTGGLGLLLIVSSTTIAAIYSLPQGVLFQGLLIGEVSAKVCLTGCARVSRPLDGGTGRHFIMASRSPFTGMVWIFWAVAAYLLAGVPGAVSVAVAVLSGVFIGLVARRNFYWSTGDVLGASNEVGRMMSLLGLLAAIRLTGL”, the protein production was “failed”.
For “MNVVQVEYLNVAEIKALLNSTISKLNPRYTSNYMIVTAILTGARLSEIAGLTWNDINFNFNTININKSYDYFAKSFKPTKNKSSNRIIKINNTLCDVLKELRTNNTDLVFKNKRGLIPTSNAVNKALRARLEELNINRRNFHFHSLRHSHVAFLLSQGIDIYPIAQRLGHSDITTTTRTYAYLIEEYKDKNDAIIIAGLDKLEHHHHHH”, the protein production was “failed”.
With “MNWIPLEQLLLKLHTPRAVSAAPAIDLGAVQEQALSLAAALQARGVRRLAVHLEDAVELAVALLGAWRAGASVLLPADLQAQTRQRWSSEVDLWLTDQDTPLHQLQASPLAPAELDPDTCQLSLCTSGSSGEPKRIEKNLRQLANEVVALEHLWGADLGQAWIIGSVATQHIYGLLFRVLWPLCAGRPFVRRQLPFPEDLQRASRECPAFAWVASPALLKRMGDNLDWPALSQVRRVFSSGGALPAEAASGLHQRLQQWPTEILGSSETGGIAWRQGPGLWQPFADVRLSQDADGALLIASPYLPAGHVEHTADAARIAADGRFELLGRLDRIVKLEEKRISLPMLEQALASHEWVAEARLGVIEDNRAYLGALLVLSEPGLHALRNQGRRHLTQALRQHLAGHCEALALPRRWRLVRQLPLNSQGKLPQAQVQALLLAPRPQAPEVLEQRQHEEEWQLQLAIPPDLAYFSGHFPQTPVLPGVVQVDWALALGQQLLELPGRFAGMEVLKFQQLVRPGDRIQLNLRFDAQRQKLYFAYLNDGAPCSCGRIVLEASCG” the protein production was “failed”.
For “MNYHWSDHPDPNKWADCVHCGMCLEACPTYELTGHEQQSPRGRVHLIKSVAEGKLEVNEAFADPVFTCLDCRACETACPADVEVGGLIEEARGQIRQALPLSGWKLEHHHHHH”, the protein production was “failed”.
For “MNYRNKAFLKYEEDYFIERIIKALKDYEEIIIISNNPEEYKEFGLKVFKDIYPSQGPLSGIHSALNHIKNDYCLVVACDMPFINKDVVNYLGNIKEDYEILIPKFQERLQPLCAIYKKSCKDIMEKELINNSNKLIKTCFKFSMKVVEEFPFIEKVHKKEIKNFYNINTVDEYEDLIKKKEILEHHHHHH”, the protein production was “failed”.
For “MNYSTLTSVLLCLLLGAPAWADHYQVVTEEWAPYNYEENGQLTGMTTEIVRAIMAVSGNDFNIVLAPSMRASHTLQMRPKTIMYSMFRTPEREVLYKWVGPIVEESVHPYQLATAAPVTSLEQLLHAPQITTRHAGLLPDMLQSLGFKNLDKSAAQSVQLYRMLLNGRTAIIIGDTDAGVAYQSRQLNIAPGTLRQIPIELYRSSLYIAFSRDCEDELVASWARALETLRQSGELERIQRRYEQLVGQ”, the protein production was “failed”.
With “MPAAAYWLPASDETPLYTRHWPSATAVGAVMLSHGMAEHAGRYERLAAALNAAGYHFYAIDQRGHGRTAEADELGHFADQGGWGKVVGDLASLNHHIRQQHPELPIFLLGHSMGSYISMAYLLHHSCSLQGAILSGSNYQPQALYRIARLIARFERWRQGPLGKSALIDFLSFGSFNKAFKPNRTAFDWLSRDPQEVDRYVADPLCGFRCSNQLWVDLLGGLADITPPTHLRQIDADLPLLIIGGERDPVSQGKRLGDLADALRGAGLRQVTLKTYPEARHELFNESNRDAVTQDLIDWLEQALRHRRDHST” the protein production was “failed”.
For “MPAGLVISAPASGVGKTTLTLALARAWRNRGLSVQCFKSGPDYIDPAFHAAATGRASVNVDSWAMDRGGIAHLVGRGADADVVLAEGSMGLFDGVAARGVSGTGATADIAEMLGWPVLLVIDPSGQAQTAAAIAAGLRDYRPGVRLAGVVLNRVASPRHEDLVRRALDDAGIAVFGALPRHAEISLPKRHLGLVQAEEQAEIGKLIDEAARFVAEHVDLDAVLQSAAAWAPQPAANGLNVTPPGQRIALARDAAFSFVYPHMLEAWRAAGADISTFSPLADEAPDASADVCWLPGGYPELHAGKIAANARFCSGLRAFAETRPVHGECGGYMVLGTALTDADGVRHEMAGLLGLETSFAKRRMHLGYRLAELAAPMPGHSPGARLRGHEFHYSTIAAQPDMPLAVVHDATGAVIAETGSRRGNATGTFFHLIAEDRLEHHHHHH”, the protein production was “not failed”.
With “MPAITRRALSAGLIAAVALSVLPFAAQAAEELKIGYQKTGLPVIARQQGVIEKALEAKGVKVSWVEFTAGPPLVEALNVGSINVGWTGDAPPIFGQAAGSAIVYVAALPSNGKGEAIFTKPESGIKSVADLKGKKVGVGKGTSAHNLLVAALEKNGLKLSDIDVTYLSPADAAAAFASDKIDAWAVWDPFYAIAETRYKPVTLARTSDVLDVKTYFLANRDYAKSHADTINTNVGALGEAAKWSAANRDKVAAALHEVTGVPLEAQTLAANRSEFGITRIDDKIVASQQETADRFYRLGLIPKQISIKDAVWSGATN” the protein production was “failed”.
For “MPAKPIDLGPLHFAKRGDAVAYLNDMLHRYDVGDRVGANDTVILRAALEHHPDAEAKKGCGITHFNVRTADFGTKCFWLNRTDGTTEKFSHRACIYGT”, the protein production was “failed”.
With “MPALACVDTSFVPPAYAFSDTAGDVFIPASSPTSAAVVVDRWSPSLSSSLYRIDGWGAPYFIANSSGNISVRPHGSETLPHQDIDLLKIVKKVTGPKSSGGLGLQLPLIVRFPDVLKNRLECLQSAFDYAIKSQGYDSHYQGVYPVKCNQDRFVVEDIVKFGSSFRFGLEAGSKPEILLAMSCLCKGSPDAFLVCNGFKDAEYISLALLGRKLALNTVIVLEQEEELDLVIELSQKMNVRPVIGLRAKLRTKHSGHFGSTSGEKGKFGLTTTQIVRVVRKLRQSGMLDCLQLLHFHIGSQIPSTSLLSDGVAEAAQLYCELVRLGAHMKVIDIGGGLGIDYDGSKSGESDLSVAYSLEEYAEAVVASVRVVCDRSSVKHPVICSESGRAIVSHHSVLIFEAVSADKPMVHQATPGDIQFLLEGNEEARANYEDLYAAVMRGDHESCLLYVDQLKQRCVEGFKEGVLSIEQLASVDGLCEWVLKAIGASDPVHTYNINLSVFTSIPDLWGIDQLFPIVPIHKLDQRPGARGILSDLTCDSDGKINKFIGGESSLPLHELDKNGSGGRYFLGMFLGGAYEEALGGVHNLFGGPSVVRVSQSDGPHSFAVTRAVPGQSSADVLRAMQHEPELMFQTLKHRAEEMMHTKGGSEGENEEEEEDDEFNNVAASLDRSFHNMPYLATEQASPSNSLSAAISNLGFYYCDEDVYDYISA” the protein production was “failed”.
In the case of “MPALITYRTTVQEDWVDYNGHLRDAFYLLIFSYATDALMDRIGLDADSRGQSGNSLFTLEAHINYLHEVKLGTEVWVQTQILGFDRKRLHVYHSLHRAGFDEVLAASEQMLLHVDLAGPQSAPFGHTTVCRLNHLVEQQEGAQAPQYMGRTIKLPA”, the protein production is reported as “not failed”.
For “MPANKKEGLIFGVMMCFGMVCVMSIYNAIINRAIYDFSLMTVFEMVIGFMIALLLDLLLVGPLAKKIAFRMPFDKTKKIYVILAMSTCMVIGMVLCMSVFGLVTAVLANGLNGDSLFSAYLMIVLKNFILAYPLQLLIMGPLVRGVFMKFVKPKLTAAI”, the protein production was “failed”.
With “MPAPLSIVIPTLQAESSLPRLLEALIEGLPNGLIREVIVSDGGSQDATRAIAEAAGAQVLNGPPSRGGQLRHGCDAARGDWLLVLHADTLPDPGWAGVVADHIAAREDAACFRLAFRARGPGAAWVAGWANLRTRLFGLPYGDQGLLIRRRDYQTAGGYPDQLLMEDVHLVRALSRAPVLLPHRALTGAERYLRSGWLRRGARNLWTLMRYFAGTDPEALARAYRRLEHHHHHH” the protein production was “failed”.
